Experiments:
BMP9 [1] = biological target: T1, BMP9 (Homo sapiens, UniProt Q9UK05); assay: Biacore-based binding assay, receptor captured with anti-Fc antibody
T1 sequence (Q9UK05 320-429): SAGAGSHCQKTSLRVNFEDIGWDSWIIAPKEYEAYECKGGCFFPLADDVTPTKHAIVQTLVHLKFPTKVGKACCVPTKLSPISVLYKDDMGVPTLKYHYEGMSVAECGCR
Procedure: (§1) A Biacore™-based binding assay was used to compare ligand binding selectivity of the ALK4-Fc:ActRIIB-Fc heterodimeric complex described above with that of ActRIIB-Fc and ALK4-Fc homodimer complexes. The ALK4-Fc:ActRIIB-Fc heterodimer, ActRIIB-Fc homodimer, and ALK4-Fc homodimer were independently captured onto the system using an anti-Fc antibody. Ligands were injected and allowed to flow over the captured receptor protein. Results are summarized in the table below, in which ligand off-rates (kd) most indicative of effective ligand traps are denoted in bold font.

GDF8 = biological target: T2, GDF8 (Homo sapiens, UniProt O14793); assay: as above
T2 sequence (O14793 267-375): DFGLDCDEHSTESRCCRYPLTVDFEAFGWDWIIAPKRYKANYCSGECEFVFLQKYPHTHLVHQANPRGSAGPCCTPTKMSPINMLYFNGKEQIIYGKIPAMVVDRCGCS
Procedure: as §1

activin B [2] = biological target: T3, activin B (Homo sapiens, UniProt P09529); assay: as above
T3 sequence (P09529 293-407): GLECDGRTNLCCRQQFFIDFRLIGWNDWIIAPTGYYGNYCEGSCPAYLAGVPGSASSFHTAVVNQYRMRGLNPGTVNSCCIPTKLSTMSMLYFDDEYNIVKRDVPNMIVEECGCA
Procedure: as §1

BMP6 = biological target: T4, BMP6 (Homo sapiens, UniProt P22004); assay: as above
T4 sequence (P22004 375-513): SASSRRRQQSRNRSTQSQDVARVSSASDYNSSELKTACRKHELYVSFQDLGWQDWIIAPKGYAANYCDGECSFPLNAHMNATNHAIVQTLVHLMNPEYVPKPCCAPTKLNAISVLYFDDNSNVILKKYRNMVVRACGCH
Procedure: as §1

GDF3 = biological target: T5, GDF3 (Homo sapiens, UniProt Q9NR23); assay: as above
T5 sequence (Q9NR23 251-364): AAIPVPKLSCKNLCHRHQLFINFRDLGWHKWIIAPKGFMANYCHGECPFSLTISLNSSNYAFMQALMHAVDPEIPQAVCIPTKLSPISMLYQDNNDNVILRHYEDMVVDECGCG
Procedure: as §1

GDF11 [3] = biological target: T6, GDF11 (Homo sapiens, UniProt O95390); assay: as above
T6 sequence (O95390 299-407): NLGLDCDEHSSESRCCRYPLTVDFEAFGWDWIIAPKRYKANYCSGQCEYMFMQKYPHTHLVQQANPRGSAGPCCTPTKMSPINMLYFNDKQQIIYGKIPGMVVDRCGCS
Procedure: as §1

BMP10 [4] = biological target: T7, BMP10 (Homo sapiens, UniProt O95393); assay: as above
T7 sequence (O95393 317-424): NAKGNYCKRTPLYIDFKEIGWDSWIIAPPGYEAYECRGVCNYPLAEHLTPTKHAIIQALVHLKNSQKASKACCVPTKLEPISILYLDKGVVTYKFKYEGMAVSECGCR
Procedure: as §1

activin A = biological target: T8, activin A (Homo sapiens, UniProt P08476); assay: as above
T8 sequence (P08476 311-426): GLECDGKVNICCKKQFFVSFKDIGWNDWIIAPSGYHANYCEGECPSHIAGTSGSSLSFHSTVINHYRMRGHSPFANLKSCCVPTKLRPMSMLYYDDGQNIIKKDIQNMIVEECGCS
Procedure: as §1

GDF11 [5] = biological target: T6, GDF11; assay: A-204 reporter gene assay, pGL3(CAGA)12 luciferase; assay type: cell-based; conditions: Example 13
Source text: Day 1: Split A-204 cells into 48-well plate. […]
(§2) In addition, an A-204 Reporter Gene Assay was used to evaluate the effects of ALK4-Fc:ActRIIB-Fc heterodimer and ActRIIB-Fc:ActRIIB-Fc homodimer on signaling by activin A, activin B, GDF11, GDF8, BMP10, and BMP9. Cell line: Human Rhabdomyosarcoma (derived from muscle). Reporter vector: pGL3(CAGA)12 (as described in Dennler et al, 1998, EMBO 17: 3091-3100). The CAGA12 motif is present in TGFβ responsive genes (PAI-1 gene), so this vector is of general use for factors signaling through Smad2 and 3. An exemplary A-204 Reporter Gene Assay is outlined below. • Day 1: Split A-204 cells into 48-well plate. • Day 2: A-204 cells transfected with 10 ug pGL3(CAGA)12 or pGL3(CAGA)12(10 ug)+pRLCMV (1 ug) and Fugene. • Day 3: Add factors (diluted into medium+0.1% BSA). Inhibitors need to be pre-incubated with Factors for about one hr before adding to cells. About six hrs later, cells are rinsed with PBS and then lysed.
(§3) Following the above steps, a Luciferase assay was performed.

BMP9 [6] = biological target: T1, BMP9; assay: A-204 reporter gene assay, pGL3(CAGA)12 luciferase; assay type: cell-based; parameters: host or cells: exogenous factor added to A-204 cells (human rhabdomyosarcoma); conditions: Example 13
Source text: as §2, §3

activin B [7] = biological target: T3, activin B; assay: A-204 reporter gene assay, pGL3(CAGA)12 luciferase; assay type: cell-based; parameters: host or cells: exogenous factor added to A-204 cells (human rhabdomyosarcoma); conditions: Example 13
Source text: as §2, §3

BMP10 [8] = biological target: T7, BMP10; assay: A-204 reporter gene assay, pGL3(CAGA)12 luciferase; assay type: cell-based; parameters: host or cells: exogenous factor added to A-204 cells (human rhabdomyosarcoma); conditions: Example 13
Source text: as §2, §3

B1: ALK4-Fc:ActRIIB-Fc heterodimer: heteromeric complex of extracellular domains of human ActRIIB and human ALK4, each separately fused to an Fc domain with a linker (protein)
chain 1: SGPRGVQALLCACTSCLQANYTCETDGACMVSIFNLDGMEHHVRTCIPKVELVPAGKPFYCLSSEDLRNTHCCYTDYCNRIDLRVPSGHLKEPEHPSMWGPVE
chain 2: GRGEAETRECIYYNANWELERTNQSGLERCEGEQDKRLHCYASWRNSSGTIELVKKGCWLDDFNCYDRQECVATEENPQVYFCCCEGNFCNERFTHLPEAGGPEVTYEPPPTAPT
modifications: left off: a dimerising Fc or GST; small tags and cut ends
notes: heteromeric complex of extracellular domains of human ActRIIB and human ALK4, each separately fused to an Fc domain with a linker
- Kd (BMP9 [1]): 3400 pM
- ka, BMP9 (BMP9 [1]): Transient*
- kd, BMP9 (BMP9 [1]): Transient*
- ka, GDF8 (GDF8): 390000 M⁻¹ s⁻¹
- kd, GDF8 (GDF8): 0.00021 s⁻¹
- Kd (GDF8; † = very low signal): 550 pM
- Kd (activin B [2]): 6 pM
- ka, Activin B (activin B [2]): 7.1e+06 M⁻¹ s⁻¹
- kd, Activin B (activin B [2]): 4e-05 s⁻¹
- Kd (BMP6): 2700 pM
- ka, BMP6 (BMP6): 2e+06 M⁻¹ s⁻¹
- kd, BMP6 (BMP6): 0.0055 s⁻¹
- Kd (GDF3): 4900 pM
- ka, GDF3 (GDF3): 3.4e+06 M⁻¹ s⁻¹
- kd, GDF3 (GDF3): 0.017 s⁻¹
- ka, GDF11 (GDF11 [3]): 3.8e+07 M⁻¹ s⁻¹
- kd, GDF11 (GDF11 [3]): 0.00011 s⁻¹
- Kd (GDF11 [3]; † = very low signal): 3 pM
- Kd (BMP10 [4]): 74 pM
- ka, BMP10 (BMP10 [4]): 5.6e+07 M⁻¹ s⁻¹
- kd, BMP10 (BMP10 [4]): 0.0041 s⁻¹
- ka, Activin A (activin A): 1.3e+07 M⁻¹ s⁻¹
- kd, Activin A (activin A): 0.00015 s⁻¹
- inhibition of GDF11 signaling (GDF11 [5]): potent inhibitors
- inhibition of BMP9 signaling pathway compared to ActRIIB-Fc:ActRIIB-Fc homodimer (BMP9 [6]): significantly reduced
- inhibition of activin B signaling (activin B [7]): potent inhibitors
- inhibition of BMP10 signaling pathway compared to ActRIIB-Fc:ActRIIB-Fc homodimer (BMP10 [8]): significantly reduced

Source: US10973880B2, “Compositions and methods for treating pulmonary hypertension” (Acceleron Pharma Inc., priority 2016, dated 2021)
